From publication PMC10153460

Key:
[1] = molecular target: cohesin with Smc1p-T1117W (S. cerevisiae) (UniProt P32908)
[2] = molecular target: cohesin with Smc1p-D1164E (S. cerevisiae) (UniProt P32908)
[3] = molecular target: smc1p-T1117I cohesin (S. cerevisiae) (UniProt P32908)

Chain of cohesin with Smc1p-T1117W (S. cerevisiae) (P32908 whole entry T1117W, chain 1 of 4): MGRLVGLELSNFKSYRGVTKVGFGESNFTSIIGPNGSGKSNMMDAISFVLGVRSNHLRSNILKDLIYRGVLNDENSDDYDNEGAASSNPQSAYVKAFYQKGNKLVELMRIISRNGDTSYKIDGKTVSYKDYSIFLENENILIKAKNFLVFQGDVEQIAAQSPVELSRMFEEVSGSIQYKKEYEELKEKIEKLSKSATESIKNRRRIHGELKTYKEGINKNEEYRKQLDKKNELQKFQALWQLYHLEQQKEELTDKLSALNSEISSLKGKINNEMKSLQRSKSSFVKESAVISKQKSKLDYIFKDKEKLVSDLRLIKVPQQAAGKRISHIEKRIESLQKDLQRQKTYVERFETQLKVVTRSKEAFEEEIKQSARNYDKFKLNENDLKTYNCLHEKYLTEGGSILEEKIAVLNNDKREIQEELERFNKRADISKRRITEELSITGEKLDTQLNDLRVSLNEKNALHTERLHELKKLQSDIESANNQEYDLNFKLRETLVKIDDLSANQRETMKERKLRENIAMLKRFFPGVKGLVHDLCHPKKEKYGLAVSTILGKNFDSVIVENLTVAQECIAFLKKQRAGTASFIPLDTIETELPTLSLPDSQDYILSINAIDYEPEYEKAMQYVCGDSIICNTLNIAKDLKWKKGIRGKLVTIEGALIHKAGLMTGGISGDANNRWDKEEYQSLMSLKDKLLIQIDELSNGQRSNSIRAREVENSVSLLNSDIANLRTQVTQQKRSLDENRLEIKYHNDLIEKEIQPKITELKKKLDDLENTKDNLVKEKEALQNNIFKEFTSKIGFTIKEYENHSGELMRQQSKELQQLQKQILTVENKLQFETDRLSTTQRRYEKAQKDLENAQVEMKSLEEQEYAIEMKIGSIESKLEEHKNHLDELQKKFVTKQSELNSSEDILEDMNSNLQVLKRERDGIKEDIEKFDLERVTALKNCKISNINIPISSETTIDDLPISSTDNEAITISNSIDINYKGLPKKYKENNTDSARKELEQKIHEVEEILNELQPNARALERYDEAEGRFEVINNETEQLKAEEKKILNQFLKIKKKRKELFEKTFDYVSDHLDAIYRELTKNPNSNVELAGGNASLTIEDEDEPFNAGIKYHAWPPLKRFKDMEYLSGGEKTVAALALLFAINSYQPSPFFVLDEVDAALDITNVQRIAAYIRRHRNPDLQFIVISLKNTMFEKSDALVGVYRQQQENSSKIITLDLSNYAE
Chain of cohesin with Smc1p-T1117W (S. cerevisiae) (P47037 whole entry, chain 2 of 4, further chain): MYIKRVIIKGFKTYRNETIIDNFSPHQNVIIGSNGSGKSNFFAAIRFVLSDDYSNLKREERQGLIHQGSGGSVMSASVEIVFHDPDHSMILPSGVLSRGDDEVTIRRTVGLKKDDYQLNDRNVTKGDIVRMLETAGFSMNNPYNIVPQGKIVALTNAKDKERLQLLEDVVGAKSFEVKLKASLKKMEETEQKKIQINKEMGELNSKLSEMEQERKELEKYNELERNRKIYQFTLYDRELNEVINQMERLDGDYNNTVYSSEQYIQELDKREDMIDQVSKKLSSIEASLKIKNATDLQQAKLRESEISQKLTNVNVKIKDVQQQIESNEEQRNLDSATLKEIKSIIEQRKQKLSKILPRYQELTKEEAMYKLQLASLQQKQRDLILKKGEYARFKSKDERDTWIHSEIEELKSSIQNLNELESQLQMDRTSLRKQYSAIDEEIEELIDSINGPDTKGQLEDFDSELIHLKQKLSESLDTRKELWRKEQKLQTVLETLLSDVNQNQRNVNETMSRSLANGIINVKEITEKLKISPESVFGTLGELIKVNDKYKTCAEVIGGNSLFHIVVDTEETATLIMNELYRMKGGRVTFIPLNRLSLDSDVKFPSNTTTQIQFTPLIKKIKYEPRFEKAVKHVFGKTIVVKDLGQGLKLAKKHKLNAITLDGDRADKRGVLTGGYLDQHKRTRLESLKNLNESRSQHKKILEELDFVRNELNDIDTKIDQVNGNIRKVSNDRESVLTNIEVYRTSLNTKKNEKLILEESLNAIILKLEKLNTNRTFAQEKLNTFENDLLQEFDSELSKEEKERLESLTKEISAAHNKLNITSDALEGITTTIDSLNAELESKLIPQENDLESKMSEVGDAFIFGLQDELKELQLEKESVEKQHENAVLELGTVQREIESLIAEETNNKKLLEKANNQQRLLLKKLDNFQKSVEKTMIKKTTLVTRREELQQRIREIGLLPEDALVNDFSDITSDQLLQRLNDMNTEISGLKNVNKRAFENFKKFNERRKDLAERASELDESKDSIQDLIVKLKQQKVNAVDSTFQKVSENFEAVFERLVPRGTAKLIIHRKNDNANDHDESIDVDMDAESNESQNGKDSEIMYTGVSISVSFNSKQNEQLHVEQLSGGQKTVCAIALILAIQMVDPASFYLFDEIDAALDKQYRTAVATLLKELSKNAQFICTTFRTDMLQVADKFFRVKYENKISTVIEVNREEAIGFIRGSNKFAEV
Chain of cohesin with Smc1p-T1117W (S. cerevisiae) (Q12158 whole entry, chain 3 of 4, further chain): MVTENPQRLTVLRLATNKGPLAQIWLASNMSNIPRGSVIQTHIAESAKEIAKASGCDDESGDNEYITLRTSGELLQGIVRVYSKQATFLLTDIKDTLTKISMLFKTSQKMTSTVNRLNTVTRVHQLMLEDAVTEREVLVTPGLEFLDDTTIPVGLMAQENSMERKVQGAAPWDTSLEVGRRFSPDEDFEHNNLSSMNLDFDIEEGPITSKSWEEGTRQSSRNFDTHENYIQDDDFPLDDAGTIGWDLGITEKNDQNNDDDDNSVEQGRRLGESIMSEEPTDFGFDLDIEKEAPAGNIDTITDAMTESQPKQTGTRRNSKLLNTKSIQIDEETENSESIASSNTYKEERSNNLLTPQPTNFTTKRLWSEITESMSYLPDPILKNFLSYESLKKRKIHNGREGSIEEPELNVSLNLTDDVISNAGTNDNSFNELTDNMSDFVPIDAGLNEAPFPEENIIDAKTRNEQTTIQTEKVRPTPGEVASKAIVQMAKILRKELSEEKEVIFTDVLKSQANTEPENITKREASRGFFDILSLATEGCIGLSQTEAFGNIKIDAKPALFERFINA
Chain of cohesin with Smc1p-T1117W (S. cerevisiae) (P40541 whole entry, chain 4 of 4, further chain): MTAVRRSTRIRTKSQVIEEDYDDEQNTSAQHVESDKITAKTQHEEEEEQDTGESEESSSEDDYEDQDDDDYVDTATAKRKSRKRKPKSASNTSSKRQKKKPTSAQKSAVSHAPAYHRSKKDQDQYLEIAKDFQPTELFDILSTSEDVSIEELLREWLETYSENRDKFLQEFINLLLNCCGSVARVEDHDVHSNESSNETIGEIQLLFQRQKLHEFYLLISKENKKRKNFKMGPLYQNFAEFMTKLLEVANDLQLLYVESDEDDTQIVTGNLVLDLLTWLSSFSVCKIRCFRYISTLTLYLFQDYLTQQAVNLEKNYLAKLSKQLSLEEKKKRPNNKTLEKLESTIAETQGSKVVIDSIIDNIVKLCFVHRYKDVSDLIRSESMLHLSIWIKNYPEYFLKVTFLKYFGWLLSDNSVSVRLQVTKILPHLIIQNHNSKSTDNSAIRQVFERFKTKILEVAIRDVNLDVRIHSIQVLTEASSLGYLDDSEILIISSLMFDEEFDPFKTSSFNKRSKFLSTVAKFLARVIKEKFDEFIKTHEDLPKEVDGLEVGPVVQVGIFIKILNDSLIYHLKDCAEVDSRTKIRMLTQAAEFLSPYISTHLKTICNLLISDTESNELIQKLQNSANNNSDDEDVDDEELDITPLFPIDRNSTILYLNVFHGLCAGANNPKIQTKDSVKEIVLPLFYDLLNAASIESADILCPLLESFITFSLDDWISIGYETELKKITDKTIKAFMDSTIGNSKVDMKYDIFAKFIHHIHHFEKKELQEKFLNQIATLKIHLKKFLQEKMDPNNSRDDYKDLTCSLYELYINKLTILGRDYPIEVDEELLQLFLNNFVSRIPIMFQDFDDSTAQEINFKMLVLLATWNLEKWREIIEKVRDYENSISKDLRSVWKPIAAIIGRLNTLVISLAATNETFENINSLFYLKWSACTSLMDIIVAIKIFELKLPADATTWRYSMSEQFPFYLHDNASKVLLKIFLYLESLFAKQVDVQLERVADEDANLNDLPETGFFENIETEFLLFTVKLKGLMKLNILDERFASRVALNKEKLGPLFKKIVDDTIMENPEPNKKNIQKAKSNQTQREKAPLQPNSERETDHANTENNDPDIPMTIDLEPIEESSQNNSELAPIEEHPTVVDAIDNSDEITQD

An ATPase activity of purified cohesin in the presence of DNA, induction by Scc2p against that of wild-type cohesin; EnzChek phosphate assay (fold less than wild type) [1] of 2, an ATPase activity of purified cohesin in the presence of DNA, induction by Scc2p against that of wild-type cohesin; EnzChek phosphate assay (fold less than wild type) [2] of 2 and an ATPase activity of purified cohesin in the presence of DNA with Scc2p, against wild-type cohesin with Scc2p; EnzChek phosphate assay (% greater than wild-type cohesin) [3] of 50 were found for “Scc2p/Scc4p (cohesin loader) (from UniProt Q04002 1-1493; P40090 1-624) (complex)” in this work.
